Assay results reported in patent US20230103631A1, “PEPTIDES AS SELECTIVE GIP RECEPTOR AGONISTS” (Sanofi, priority 2020, published 2023).
*1 amine or outer side, *2 acyl side, *3 side chain or, on linkers, in order; H or OH if unused. Where no end group is shown, it is not given here. Side-chain parts run from the residue outwards. [ ]: non-standard residue; d: D form. The star is where a group is joined. C20 diacid = O=C(O)CCCCCCCCCCCCCCCCCCC(=O)*; C18 diacid = O=C(O)CCCCCCCCCCCCCCCCC(=O)*; γGlu = O=C(O)[C@H](CCC(=O)[*:2])N[*:1]; NMeY = CN[C@@H](Cc1ccc(O)cc1)C(=O)O; AEEA = NCCOCCOCC(=O)O; Aib = CC(C)(N)C(=O)O

T1: human GIP receptor (human, UniProt P48546 22-466)
T1 sequence (looked up): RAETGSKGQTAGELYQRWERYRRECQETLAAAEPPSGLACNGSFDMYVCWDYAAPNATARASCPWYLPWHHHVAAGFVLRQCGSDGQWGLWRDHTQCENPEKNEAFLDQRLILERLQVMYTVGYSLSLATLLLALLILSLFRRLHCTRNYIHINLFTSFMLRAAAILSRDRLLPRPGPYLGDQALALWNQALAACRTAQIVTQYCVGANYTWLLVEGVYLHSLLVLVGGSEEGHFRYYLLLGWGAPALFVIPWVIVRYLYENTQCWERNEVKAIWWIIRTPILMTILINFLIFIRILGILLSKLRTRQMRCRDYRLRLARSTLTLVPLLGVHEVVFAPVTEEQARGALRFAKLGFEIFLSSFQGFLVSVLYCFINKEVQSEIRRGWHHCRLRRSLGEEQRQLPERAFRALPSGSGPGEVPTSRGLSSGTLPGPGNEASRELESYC


Experiments:
human GIP receptor [1] = target: T1, human GIP receptor; experiment: cell-based or functional assay
human GLP-1 receptor [2] = target: T2, human GLP-1 receptor (human, UniProt P43220 24-463); experiment: displacement of [125I]GLP-1 from hGLP-1R HEK-293 membranes, SPA
T2 construct: whole, on cells; also called hGLP-1R; hGLP-1 receptor

human GIP receptor [3] = target: T1, human GIP receptor; experiment: cell-based or functional assay; remark: listed apart in the source
human GLP-1 receptor [4] = target: T2, human GLP-1 receptor; experiment: cell-based or functional assay

Row | Binder | hGIPR EC50, cAMP in human adipocytes (human GIP receptor [1]) [nM] | hGIPR Emax, cAMP in human adipocytes (human GIP receptor [1]) [%] | IC50 (human GLP-1 receptor [2]) [nM] | EC50 hGIPR 0% HSA, cAMP in HEK-293 cells (human GIP receptor [3]) [nM] | EC50 hGIPR 0.1% HSA, cAMP in HEK-293 cells (human GIP receptor [3]) [nM] | EC50 hGLP-1R 0% HSA, cAMP in HEK-293 cells (human GLP-1 receptor [4]) [nM]
1 | Y[Aib]EGTFISDLSI[Aib]K([AEEA-AEEA-γGlu-C18 diacid])DRIHQEEFIEWLLAQGPSSGAPPPS-OH (N-terminus assumed; SMILES CC[C@H](C)[C@H](NC(=O)[C@H](Cc1ccccc1)NC(=O)[C@H](CCC(=O)O)NC(=O)[C@H](CCC(=O)O)NC(=O)[C@H](CCC(N)=O)NC(=O)[C@H](Cc1c[nH]cn1)NC(=O)[C@@H](NC(=O)[C@H](CCCNC(=N)N)NC(=O)[C@H](CC(=O)O)NC(=O)[C@H](CCCCNC(=O)COCCOCCNC(=O)COCCOCCNC(=O)CC[C@H](NC(=O)CCCCCCCCCCCCCCCCC(=O)O)C(=O)O)NC(=O)C(C)(C)NC(=O)[C@@H](NC(=O)[C@H](CO)NC(=O)[C@H](CC(C)C)NC(=O)[C@H](CC(=O)O)NC(=O)[C@H](CO)NC(=O)[C@@H](NC(=O)[C@H](Cc1ccccc1)NC(=O)[C@@H](NC(=O)CNC(=O)[C@H](CCC(=O)O)NC(=O)C(C)(C)NC(=O)[C@@H](N)Cc1ccc(O)cc1)[C@@H](C)O)[C@@H](C)CC)[C@@H](C)CC)[C@@H](C)CC)C(=O)N[C@@H](CCC(=O)O)C(=O)N[C@@H](Cc1c[nH]c2ccccc12)C(=O)N[C@@H](CC(C)C)C(=O)N[C@@H](CC(C)C)C(=O)N[C@@H](C)C(=O)N[C@@H](CCC(N)=O)C(=O)NCC(=O)N1CCC[C@H]1C(=O)N[C@@H](CO)C(=O)N[C@@H](CO)C(=O)NCC(=O)N[C@@H](C)C(=O)N1CCC[C@H]1C(=O)N1CCC[C@H]1C(=O)N1CCC[C@H]1C(=O)N[C@@H](CO)C(=O)O, Exendin-4 derived synthetic lipidated peptide of formula I) [SEQ ID NO: 11] | 1 | 122 | 288 | 0.00019 | 0.00224 | > 10
2 | Y[Aib]EGTFISDLSI[Aib]K([Gly-Gly-Gly-γGlu-C18 diacid])DRIHQ[Aib]EFIEWLLAQGPSSGAPPPS-NH2 (N-terminus assumed; SMILES CC[C@H](C)[C@H](NC(=O)[C@H](CCCNC(=N)N)NC(=O)[C@H](CC(=O)O)NC(=O)[C@H](CCCCNC(=O)CNC(=O)CNC(=O)CNC(=O)CC[C@H](NC(=O)CCCCCCCCCCCCCCCCC(=O)O)C(=O)O)NC(=O)C(C)(C)NC(=O)[C@@H](NC(=O)[C@H](CO)NC(=O)[C@H](CC(C)C)NC(=O)[C@H](CC(=O)O)NC(=O)[C@H](CO)NC(=O)[C@@H](NC(=O)[C@H](Cc1ccccc1)NC(=O)[C@@H](NC(=O)CNC(=O)[C@H](CCC(=O)O)NC(=O)C(C)(C)NC(=O)[C@@H](N)Cc1ccc(O)cc1)[C@@H](C)O)[C@@H](C)CC)[C@@H](C)CC)C(=O)N[C@@H](Cc1c[nH]cn1)C(=O)N[C@@H](CCC(N)=O)C(=O)NC(C)(C)C(=O)N[C@@H](CCC(=O)O)C(=O)N[C@@H](Cc1ccccc1)C(=O)N[C@H](C(=O)N[C@@H](CCC(=O)O)C(=O)N[C@@H](Cc1c[nH]c2ccccc12)C(=O)N[C@@H](CC(C)C)C(=O)N[C@@H](CC(C)C)C(=O)N[C@@H](C)C(=O)N[C@@H](CCC(N)=O)C(=O)NCC(=O)N1CCC[C@H]1C(=O)N[C@@H](CO)C(=O)N[C@@H](CO)C(=O)NCC(=O)N[C@@H](C)C(=O)N1CCC[C@H]1C(=O)N1CCC[C@H]1C(=O)N1CCC[C@H]1C(=O)N[C@@H](CO)C(N)=O)[C@@H](C)CC, Exendin-4 derived synthetic lipidated peptide of formula I) [SEQ ID NO: 5] | 0.5 | 137 | 145 | 0.00016 | 0.00175 | > 10
3 | [NMeY][Aib]EGTFISDLSI[Aib]K([AEEA-AEEA-γGlu-C18 diacid])DRIHQ[Aib]EFIEWLLAQGPSSGAPPPS-NH2 (N-terminus assumed; SMILES CC[C@H](C)[C@H](NC(=O)[C@H](CCCNC(=N)N)NC(=O)[C@H](CC(=O)O)NC(=O)[C@H](CCCCNC(=O)COCCOCCNC(=O)COCCOCCNC(=O)CC[C@H](NC(=O)CCCCCCCCCCCCCCCCC(=O)O)C(=O)O)NC(=O)C(C)(C)NC(=O)[C@@H](NC(=O)[C@H](CO)NC(=O)[C@H](CC(C)C)NC(=O)[C@H](CC(=O)O)NC(=O)[C@H](CO)NC(=O)[C@@H](NC(=O)[C@H](Cc1ccccc1)NC(=O)[C@@H](NC(=O)CNC(=O)[C@H](CCC(=O)O)NC(=O)C(C)(C)NC(=O)[C@H](Cc1ccc(O)cc1)NC)[C@@H](C)O)[C@@H](C)CC)[C@@H](C)CC)C(=O)N[C@@H](Cc1c[nH]cn1)C(=O)N[C@@H](CCC(N)=O)C(=O)NC(C)(C)C(=O)N[C@@H](CCC(=O)O)C(=O)N[C@@H](Cc1ccccc1)C(=O)N[C@H](C(=O)N[C@@H](CCC(=O)O)C(=O)N[C@@H](Cc1c[nH]c2ccccc12)C(=O)N[C@@H](CC(C)C)C(=O)N[C@@H](CC(C)C)C(=O)N[C@@H](C)C(=O)N[C@@H](CCC(N)=O)C(=O)NCC(=O)N1CCC[C@H]1C(=O)N[C@@H](CO)C(=O)N[C@@H](CO)C(=O)NCC(=O)N[C@@H](C)C(=O)N1CCC[C@H]1C(=O)N1CCC[C@H]1C(=O)N1CCC[C@H]1C(=O)N[C@@H](CO)C(N)=O)[C@@H](C)CC, Exendin-4 derived synthetic lipidated peptide of formula I) [SEQ ID NO: 8] | 0.5 | 116 | 186 | 0.00019 | 0.00137 | > 10
4 | Y[Aib]EGTFISDLSI[Aib]K([AEEA-AEEA-γGlu-C20 diacid])DRIHQ[Aib]EFIEWLLAQGPSSGAPPPS-NH2 (N-terminus assumed; SMILES CC[C@H](C)[C@H](NC(=O)[C@H](CCCNC(=N)N)NC(=O)[C@H](CC(=O)O)NC(=O)[C@H](CCCCNC(=O)COCCOCCNC(=O)COCCOCCNC(=O)CC[C@H](NC(=O)CCCCCCCCCCCCCCCCCCC(=O)O)C(=O)O)NC(=O)C(C)(C)NC(=O)[C@@H](NC(=O)[C@H](CO)NC(=O)[C@H](CC(C)C)NC(=O)[C@H](CC(=O)O)NC(=O)[C@H](CO)NC(=O)[C@@H](NC(=O)[C@H](Cc1ccccc1)NC(=O)[C@@H](NC(=O)CNC(=O)[C@H](CCC(=O)O)NC(=O)C(C)(C)NC(=O)[C@@H](N)Cc1ccc(O)cc1)[C@@H](C)O)[C@@H](C)CC)[C@@H](C)CC)C(=O)N[C@@H](Cc1c[nH]cn1)C(=O)N[C@@H](CCC(N)=O)C(=O)NC(C)(C)C(=O)N[C@@H](CCC(=O)O)C(=O)N[C@@H](Cc1ccccc1)C(=O)N[C@H](C(=O)N[C@@H](CCC(=O)O)C(=O)N[C@@H](Cc1c[nH]c2ccccc12)C(=O)N[C@@H](CC(C)C)C(=O)N[C@@H](CC(C)C)C(=O)N[C@@H](C)C(=O)N[C@@H](CCC(N)=O)C(=O)NCC(=O)N1CCC[C@H]1C(=O)N[C@@H](CO)C(=O)N[C@@H](CO)C(=O)NCC(=O)N[C@@H](C)C(=O)N1CCC[C@H]1C(=O)N1CCC[C@H]1C(=O)N1CCC[C@H]1C(=O)N[C@@H](CO)C(N)=O)[C@@H](C)CC, Exendin-4 derived synthetic lipidated peptide of formula I) [SEQ ID NO: 7] | 0.3 | 121 | 105 | 0.00017 | 0.00286 | > 10
5 | Y[Aib]EGTFISDLSI[Aib]K([AEEA-AEEA-γGlu-C20 diacid])DRIHQEEFIEWLLAQGPSSGAPPPS-NH2 (N-terminus assumed; SMILES CC[C@H](C)[C@H](NC(=O)[C@H](Cc1ccccc1)NC(=O)[C@H](CCC(=O)O)NC(=O)[C@H](CCC(=O)O)NC(=O)[C@H](CCC(N)=O)NC(=O)[C@H](Cc1c[nH]cn1)NC(=O)[C@@H](NC(=O)[C@H](CCCNC(=N)N)NC(=O)[C@H](CC(=O)O)NC(=O)[C@H](CCCCNC(=O)COCCOCCNC(=O)COCCOCCNC(=O)CC[C@H](NC(=O)CCCCCCCCCCCCCCCCCCC(=O)O)C(=O)O)NC(=O)C(C)(C)NC(=O)[C@@H](NC(=O)[C@H](CO)NC(=O)[C@H](CC(C)C)NC(=O)[C@H](CC(=O)O)NC(=O)[C@H](CO)NC(=O)[C@@H](NC(=O)[C@H](Cc1ccccc1)NC(=O)[C@@H](NC(=O)CNC(=O)[C@H](CCC(=O)O)NC(=O)C(C)(C)NC(=O)[C@@H](N)Cc1ccc(O)cc1)[C@@H](C)O)[C@@H](C)CC)[C@@H](C)CC)[C@@H](C)CC)C(=O)N[C@@H](CCC(=O)O)C(=O)N[C@@H](Cc1c[nH]c2ccccc12)C(=O)N[C@@H](CC(C)C)C(=O)N[C@@H](CC(C)C)C(=O)N[C@@H](C)C(=O)N[C@@H](CCC(N)=O)C(=O)NCC(=O)N1CCC[C@H]1C(=O)N[C@@H](CO)C(=O)N[C@@H](CO)C(=O)NCC(=O)N[C@@H](C)C(=O)N1CCC[C@H]1C(=O)N1CCC[C@H]1C(=O)N1CCC[C@H]1C(=O)N[C@@H](CO)C(N)=O, Exendin-4 derived synthetic lipidated peptide of formula I) [SEQ ID NO: 10] | 0.4 | 127 | 223 | 0.00025 | 0.00537 | > 10
